Reference: IntAct's records for PubMed 20596027

B1: Centriolar coiled-coil protein of 110 kDa (Homo sapiens), O43303-2 (parent)
chain: MEEYEKFCEKSLARIQEASLSTESFLPAQSESISLIRFHGVAILSPLLNIEKRKEMQQEKQKALDVEARKQVNRKKALLTRVQEILDNVQVRKAPNASDFDQWEMETVYSNSEVRNLNVPATFPNSFPSHTEHSTAAKLDKIAGILPLDNEDQCKTDGIDLARDSEGFNSPKQCDSSNISHVENEAFPKTSSATPQETLISDGPFSVNEQQDLPLLAEVIPDPYVMSLQNLMKKSKEYIEREQSRRSLRGSINRIVNESHLDKEHDAVEVADCVKEKGQLTGKHCVSVIPDKPSLNKSNVLLQGASTQASSMSMPVLASFSKVDIPIRTGHPTVLESNSDFKVIPTFVTENNVIKSLTGSYAKLPSPEPSMSPKMHRRRSRTSSACHILINNPINACELSPKGKEQAMDLIIQDTDENTNVPEIMPKLPTDLAGVCSSKVYVGKNTSEVKEDVVLGKSNQVCQSSGNHLENKVTHGLVTVEGQLTSDERGAHIMNSTCAAMPKLHEPYASSQCIASPNFGTVSGLKPASMLEKNCSLQTELNKSYDVKNPSPLLMQNQNTRQQMDTPMVSCGNEQFLDNSFEKVKRRLDLDIDGLQKENCPYVITSGITEQERQHLPEKRYPKGSGFVNKNKMLGTSSKESEELLKSKMLAFEEMRKRLEEQHAQQLSLLIAEQEREQERLQKEIEEQEKMLKEKKAMTAEASELDINNAVELEWRKISDSSLLETMLSQADSLHTSNSNSSGFTNSAMQYSFVSANEAPFYLWGSSTSGLTKLSVTRPFGRAKTRWSQVFSLEIQAKFNKITAVAKGFLTRRLMQTDKLKQLRQTVKDTMEFIRSFQSEAPLKRGIVSAQDASLQERVLAQLRAALYGIHDIFFVMDAAERMSILHHDREVRKEKMLRQMDKMKSPRVALSAATQKSLDRKKYMKAAEMGMPNKKFLVKQNPSETRVLQPNQGQNAPVHRLLSRQGSICRKNPKKAAKCCDNLRRQHSLG
partner: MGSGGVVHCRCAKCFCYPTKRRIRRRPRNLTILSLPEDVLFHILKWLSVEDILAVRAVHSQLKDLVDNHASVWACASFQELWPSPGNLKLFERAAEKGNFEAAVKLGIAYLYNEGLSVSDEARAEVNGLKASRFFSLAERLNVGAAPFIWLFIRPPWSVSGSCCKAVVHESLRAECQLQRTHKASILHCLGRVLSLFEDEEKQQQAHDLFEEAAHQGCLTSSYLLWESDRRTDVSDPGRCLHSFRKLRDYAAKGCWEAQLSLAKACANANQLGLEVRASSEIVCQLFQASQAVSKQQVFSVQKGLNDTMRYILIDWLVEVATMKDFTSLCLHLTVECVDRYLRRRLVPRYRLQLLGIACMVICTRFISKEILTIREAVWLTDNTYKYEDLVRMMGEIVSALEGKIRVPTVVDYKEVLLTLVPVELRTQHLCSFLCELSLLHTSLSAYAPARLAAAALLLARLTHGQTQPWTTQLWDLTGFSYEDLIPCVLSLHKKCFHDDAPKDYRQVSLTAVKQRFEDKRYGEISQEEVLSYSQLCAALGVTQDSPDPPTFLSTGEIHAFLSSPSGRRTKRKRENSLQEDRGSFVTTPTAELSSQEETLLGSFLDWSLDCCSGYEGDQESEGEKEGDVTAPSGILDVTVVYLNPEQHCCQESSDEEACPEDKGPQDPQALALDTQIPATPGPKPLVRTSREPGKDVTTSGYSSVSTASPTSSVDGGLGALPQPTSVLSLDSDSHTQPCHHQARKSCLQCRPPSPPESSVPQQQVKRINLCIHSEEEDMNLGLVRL
B2: Cyclin-F (Homo sapiens), P41002 (parent)
chain: B1 partner

Variants of: B1
Details: with ccnf_human CCNF

effect of a mutation on the interaction | Variant
disrupting interaction | L588A;L590A

Variants of: B2
Details: with cp110_human CCP110, O43303

effect of a mutation on the interaction | Variant
disrupting interaction | M309A;L313A

Variants of: B2
Details: with cul1_human CUL1, Q13616
cul1_human CUL1, Q13616, sequence (Q13616 whole entry): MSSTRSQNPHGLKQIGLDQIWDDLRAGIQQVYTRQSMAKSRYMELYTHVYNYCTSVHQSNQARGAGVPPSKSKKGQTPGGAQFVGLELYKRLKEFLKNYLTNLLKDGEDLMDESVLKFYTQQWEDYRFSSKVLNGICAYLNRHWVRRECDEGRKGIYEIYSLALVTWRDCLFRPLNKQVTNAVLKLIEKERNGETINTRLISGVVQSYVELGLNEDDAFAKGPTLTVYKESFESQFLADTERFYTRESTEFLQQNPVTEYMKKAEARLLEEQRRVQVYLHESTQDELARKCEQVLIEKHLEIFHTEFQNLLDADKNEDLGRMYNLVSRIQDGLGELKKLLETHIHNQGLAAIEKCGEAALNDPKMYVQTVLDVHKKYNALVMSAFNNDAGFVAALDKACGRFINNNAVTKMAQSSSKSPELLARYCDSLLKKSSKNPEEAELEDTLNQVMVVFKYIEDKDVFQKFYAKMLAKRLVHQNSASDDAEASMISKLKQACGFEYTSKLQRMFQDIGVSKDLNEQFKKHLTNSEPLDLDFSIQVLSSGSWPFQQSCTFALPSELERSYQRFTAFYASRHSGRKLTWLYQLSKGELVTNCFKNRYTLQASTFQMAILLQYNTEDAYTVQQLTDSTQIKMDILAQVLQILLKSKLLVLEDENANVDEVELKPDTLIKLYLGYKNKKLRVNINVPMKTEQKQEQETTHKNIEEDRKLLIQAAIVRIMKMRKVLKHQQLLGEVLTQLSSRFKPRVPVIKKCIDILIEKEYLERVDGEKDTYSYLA

effect of a mutation on the interaction | Variant
disrupting interaction | L35A;P36A
